These results are taken from patent publication US20260083749A1, “ANTI-CD123 IMMUNOCONJUGATES FOR THE TREATMENT OF ACUTE MYELOID LEUKEMIA” (ImmunoGen, Inc., priority 2024, published 2026).

For one data set, the system named is AML patients. Particulars: published for other AML therapies; cited from earlier work.
Data set [1] has as its system patients with R/R AML. As to the kind of experiment: Phase 1/2 trial of pivekimab sunirine monotherapy Q3W: anti-leukemia responses. It counts as in vivo, human. Particulars: for Median time to first CCR (CR/CRh/CRi): range. The text has this: (§1) Patients with AML were enrolled into a phase 1/2 clinical trial of pivekimab sunirine. Key inclusion and exclusion criteria were as follows.
• Patients ≥18 years old • R/R AML • Confirmation of CD123 positivity on flow cytometry or immunohistochemistry (IHC). Patients who received prior CD123-targeting agents were allowed as long as the blasts still had detectable CD123 expression. • Eastern Cooperative Oncology Group (ECOG) performance status ≤1. […] Patients with a PCHM were eligible as long as no current therapy was still required for the second malignancy (e.g., MDS, CMML). Patients with a nonhematologic prior malignancy were in remission from the prior malignancy.
(§2) Patients with R/R AML (n=68) were treated with pivekimab sunirine once every 3 weeks (Q3W; on day 1 of a 3-week cycle).
(§3) The trial included a dose-escalation phase and a dose-expansion phase. All patients in both phases received intravenous doses of pivekimab sunirine on day 1 of a 21-day cycle as a <30-minute outpatient infusion. Lyophilized pivekimab sunirine was reconstituted using […] of water for injection. Planned treatment consisted of 2 cycles (6 weeks). Additional cycles, up to 10 total, were administered for patients deriving benefit from this regimen. CNS prophylactic intrathecal chemotherapy was administered. Patients received 8 mg dexamethasone on the day before any pivekimab sunirine dose. Patients also received 25-50 mg diphenhydramine, 325-650 mg acetaminophen or paracetamol, and 8 mg dexamethasone before each pivekimab sunirine infusion.
(§4) In the dose-escalation phase, patients received doses of pivekimab sunirine starting at 0.015 mg/kg with five escalations (n=38): 0.015 mg/kg (n=3), 0.045 mg/kg (n=9), 0.09 mg/kg (n=12), […] (n=7), 0.3 mg/kg (n=5), and 0.45 mg/kg (n=2).
Anti-leukemia responses were assessed per International Working Group (IWG) criteria 2003 (Cheson B D, et al. Revised recommendations of the International Working Group for Diagnosis, Standardization of Response Criteria, Treatment Outcomes, and Reporting Standards for Therapeutic Trials in Acute Myeloid Leukemia. J Clin Oncol 2003; 21(24): 4642-9) and European LeukemiaNet (ELN) response criteria 2017 (Dohner H, et al. Diagnosis and management of AML in adults: 2017 ELN recommendations from an international expert panel. Blood 2017; 129(4): 424-47) as composite complete remission (CCR) rate (defined as CR without minimal residual disease [CRMRD−]+CR+CRh+CR with incomplete recovery CRi]). Overall response rate (ORR) was defined as CRMRD−+CR+CRh+CRi+morphologic leukemia-free state (MLFS) +partial response (PR). Duration of overall response (DOR) was also evaluated.
Response assessments were performed in bone marrow aspirates (BMAs) for differential assessments taken on Cycle 1, Day 21±7 days. Subsequent BMAs were performed approximately every 1 to 2 cycles as clinically indicated, and at the 30-Day Follow-up visit. Data was also collected in the event BMAs were performed more frequently. No repeat bone marrow was necessary if lack of response or PD could be unequivocally diagnosed from peripheral blood tests or if the bone marrow test was considered noncontributory at any time point.

The subject of a further data set is AML xenografts. Particulars: background statement; cited from earlier work.
In data set [2] the test system is normal marrow progenitors. Particulars: background statement; cited from earlier work.
In data set [3] the test system is patients with R/R AML. As to the kind of experiment: Phase 1/2 trial of pivekimab sunirine monotherapy Q3W: safety (TEAEs, SAEs, DLTs). It counts as in vivo, human. Particulars: N= 3/91; dose levels four- to ten-fold higher per cycle than the RP2D.
In data set [4] the test system is patients with R/R AML. Described as above. In kind it is in vivo, human. Here is the method:
as §1, §2, §3
Following preparation, IMGN632 (or pivekimab sunirine (pvek)) was administered by IV syringe pump. Overall length of infusion was varied depending on dose and patient tolerability. Initially, the study drug was administered at a rate of 0.165 mg/min ([…]); and, after 30 minutes, if well tolerated, the rate was increased to 0.33 mg/min. Subsequent infusions were delivered at the highest tolerated rate. Before and following infusion, the line was flushed with 5% dextrose to ensure delivery of the full dose. Patients were carefully observed during each infusion and vital signs were monitored. Patients remained in the clinic under observation for 4 hours after the first infusion and for at least 1 hour after each subsequent infusion.
as §4
Based on nonclinical pharmacology, clinical safety, anti-leukemia activity, PK, and PD assessments during the dose-escalation phase, two cohorts were established for the dose expansion phase. • Cohort 1: Patients with relapsed AML received 0.045 mg/kg (escalation dose level 2) Q3W (n=20). • Cohort 2: Patients with relapsed or refractory (to non-intense therapies) AML received 0.09 mg/kg (escalation dose level 3) Q3W (n=10).
Safety was assessed by treatment-emergent adverse events (TEAEs), serious adverse events (SAEs), and dose-limiting toxicities (DLTs). The median duration of treatment in participants who received […] pivekimab sunirine Q3W (n=29) was 9 weeks (range, 3-110).

Where [5] appears, read: RP2D, prior intensive therapy, n= 5/22.
Setting [6] is: RP2D, prior venetoclax exposure, n= 2/14.

`N#Cc1ccnc(N2C(=O)CC[C@H]2C(=O)N(c2cncc(F)c2)[C@H](C(=O)NC2CC(F)(F)C2)c2ccccc2Cl)c1` [ivosidenib]: in the data set with AML patients, the “Incidence of febrile neutropenia, published” value is 29%.
Regarding `CCc1nc(C(N)=O)c(Nc2ccc(N3CCC(N4CCN(C)CC4)CC3)c(OC)c2)nc1NC1CCOCC1` [gilteritinib], the “Incidence of febrile neutropenia, published” value in the data set on AML patients is given as 46%.

B1: pivekimab sunirine (conjugate, chains of the INN, looked up)
VH: QVQLVQSGAEVKKPGASVKVSCKASGYIFTSSIMHWVRQAPGQGLEWIGYIKPYNDGTKYNEKFKGRATLTSDRSTSTAYMELSSLRSEDTAVYYCAREGGNDYYDTMDYWGQGTLVTVSS
VL: EIQMTQSPSSLSASVGDRVTITCRASQDINSYLSWFQQKPGKAPKTLIYRVNRLVDGVPSRFSGSGSGNDYTLTISSLQPEDFATYYCLQYDAFPYTFGQGTKVEIK
modifications: sunirine payload (DNA-alkylating drug conjugate)
B1: in the data set with patients with R/R AML [1] (All Participants (n = 68)), the “Best overall response CR, %” value is “(3) %”; the “Best overall response CR, No.” value was determined as 2 No; the “Best overall response CRh, %” value is given as “(3) %”; the “Best overall response CRh, No.” value was 2 No. Moreover, in the data set with patients with R/R AML [1] (All Participants (n = 68)), the “Best overall response CRi, %” value is recorded as “(6) %”; the “Best overall response CRi, No.” value is given as 4 No; the “Best overall response MLFS, %” value is recorded as “(3) %”; the “Best overall response MLFS, No.” value is recorded as 2 No. In addition, in the data set on patients with R/R AML [1] (All Participants (n = 68)), the “Best overall response PD, %” value is listed as “(24) %”; the “Best overall response PD, No.” value is reported as 16 No; the “Best overall response PR, %” value was “(2) %”; the “Best overall response PR, No.” value came out at 1 No. In the data set with patients with R/R AML [1] (All Participants (n = 68)), the “Best overall response SD, %” value was “(52) %”; the “Best overall response SD, No.” value was determined as 35 No; the “CCR rate (CR + CRh + CRi), %” value is on record as “(12) %”; the “CCR rate (CR + CRh + CRi), No.” value was determined as 8 No. In addition, in the data set on patients with R/R AML [1] (All Participants (n = 68)), the “Median duration of CR” value is reported as 2.2 mo; the “Median duration of remission” value is on record as 2.0 mo; the “ORR (CR + CRh + CRi + MLFS + PR), No.” value was 11 No. The “Anti-leukemia activity versus CD123 expression” value with patients with R/R AML [1] (FIG. 3) is “anti-leukemia activity regardless of CD123 expression”. For the same molecule, in the data set with patients with R/R AML [1] (RP2D, de novo (nonsecondary) AML, n= 6/18), the ORR stood at 33%. In the data set on patients with R/R AML [1] (RP2D, prior HSCT, n= 3/9), this molecule gave a CCR of 33% and an ORR of 33%. In the data set on patients with R/R AML [1] (setting [5]), the CCR was determined as 23% and the ORR came out at 23%. In the data set with patients with R/R AML [1] (setting [6]), the CCR worked out at 14% and the ORR is 14%. In addition, the CCR with patients with R/R AML [1] (RP2D, two prior lines, n= 3/15) turned out to be 20%. In the data set on patients with R/R AML [1] (RP2D, two prior lines, n= 4/15), this molecule registered an ORR of 27%. In the data set on patients with R/R AML [1] (RP2D, venetoclax-naive, n= 3/15), this molecule came in with a CCR of 20%. Besides, the ORR in the data set with patients with R/R AML [1] (RP2D, venetoclax-naive, n= 4/15) stood at 27%. The “Median duration of CCR (CR/CRh/CRi)” value in the data set on patients with R/R AML [1] (RP2D, 95% CI 1.64-not estimable) turned out to be 2.27 months. For the same molecule, the “Median time to first CCR (CR/CRh/CRi)” value in the data set on patients with R/R AML [1] (RP2D, 0.79-3.61) amounted to 2.04 months. Also, in the data set with patients with R/R AML [1] (all dose levels and cohorts, n= 31/68), the “Participants with decrease in bone marrow blasts” value is 46%. For the same molecule, in the data set with patients with R/R AML [1] (all schedule A doses, 95% CI 1.02-3.55), the “Median duration of CCR (CR/CRh/CRi)” value is reported as 2.22 months. In the data set on patients with R/R AML [1] (all schedule A doses, 0.46-4.37), the “Median time to first CCR (CR/CRh/CRi)” value is on record as 1.76 months. For the same molecule, the “Participants with >100% increase in BM blasts” value in the data set on patients with R/R AML [1] (cohort 1 and cohort 2 R/R AML, FIG. 1) came out at 11 participants. Further, in the data set on patients with R/R AML [1] (in vivo), the “Individual responses in participants with FLT3-ITD mutations” value is given as “¼” and the “Individual responses in participants with IDH1 mutations” value is reported as “⅓”. Also, the “Antitumor activity in AML xenografts” value in the data set on AML xenografts is reported as “potent antitumor activity”. Also, the “Toxicity in normal marrow progenitors versus other DNA-targeting payloads” value in data set [2] is “less toxicity in normal marrow progenitors”. For the same molecule, the “Reversible VOD” value in the data set on patients with R/R AML [3] is recorded as 3%. In the data set on patients with R/R AML [4] (0.3 mg/kg after 2 cycles), the “Prolonged neutropenia (grade 3) considered related to pivekimab sunirine (DLT)” value was “one”. In the data set with patients with R/R AML [4] (2 deaths due to disease progression), this molecule gave a 30-day mortality rate of 7%. For the same molecule, the “Maximum tolerated dose (MTD)” value in the data set with patients with R/R AML [4] (30-fold dose escalation, 0.015-[…] Q3W) was “no maximum tolerated dose (MTD) defined”. Further, the “Incidence of febrile neutropenia” value with patients with R/R AML [4] (all schedule A participants) is 35%. Further, the “Reversible VOD possibly related to pivekimab sunirine (DLT)” value in the data set on patients with R/R AML [4] (grade 3, 0.18 mg/kg after 2 cycles, grade 4, […] during cycle 1) is recorded as “two”. Moreover, the “Grade 4 IRRs” value in the data set on patients with R/R AML [4] (in vivo) is recorded as “no grade 4 IRRs occurred”. In the data set with patients with R/R AML [4] (mostly tachycardia and/or chills with the first dose, primarily grade 1-2), the IRRs is 31%. Besides, the “Participants who experienced DLTs” value with patients with R/R AML [4] (of the 68 participants, all doses) is “Three”. Besides, the “TEAEs leading to treatment discontinuation” value with patients with R/R AML [4] (seven of 68 participants) is given as 10%.
